What is called stoichiometry N is a count of units in the complex or per binding partner.

Sequences and labels used below:
B1: His6–Pos1 (natural protein, S. pombe, UniProt O13743 1-269, looked up)
chain: MAFSPANSFLINKSICESKEVEPLEANLFGKLHNKLLICKAKKENLEKKLAYQMMYSKLLKSLPKLSSLEENKLTKLKAPIEDMENTKKELEEIRKQSTETELRYLKSLSNTLSFGTLSLSNEINKVGPSASFMLKEVHDSVQVLEQRLEKMGLIEKPSESSESSIYSILASLKHTNDSLQKKELSPHEIAESPSSHSTSPMGRNVDTETLSFLLIDWQRLCAEQNTFLRDITNNMSSSVPQDVLSQLRQFFFRSELLSDKLSNLCSES
notes: Pos1, S. pombe; also called His6-tagged Pos1; source: Rosetta2(DE3)pLysS bacteria (pETDuet); alone: purified on nickel magnetic beads; not shown: His6, N-terminal, kept
B2: FLAG–Spa2(200–360) (domain or fragment, S. pombe, UniProt O42869 200-360, looked up)
chain: NTVQANNSSTSSLSQGAQTGIDSSSNYLSRIEMLESSLAKSNSLLDSSKSEMEALKAKSISDATKHKNEIFQLEEKLHEASHEAEISIKKLNDAENRIKELENNPTLSFNPELEKNLKLMQELIVAESSKTQHIVELESCIDSLKAETERWKKVAINAKSA
notes: also called Spa2(200–360)–FLAG

The target of assay [1] is B2. As to the kind of experiment: pull-down; co-purification: His6–Pos1 and FLAG–Spa2(200–360) co-produced in bacteria with a dual expression system, purified on DYKDDDDK Fab-Trap agarose, eluted with 3×FLAG peptide; SDS-PAGE, Coomassie Blue. The conditions noted are these: partners not purified.
The target in assay [2] is B1. As to the kind of experiment: SEC; Superose 6 10/300 GL, 0.5 ml/min, 4°C, 10 mM Tris-HCl pH 7.5, 150 mM NaCl, 0.5 mM EDTA; each protein alone or the co-purified complex; sizes estimated from calibration standards. As to conditions: both partners purified.
Assay [3] has as its target T1, MBP–Pos1 (S. pombe, UniProt O13743 1-269).
T1 construct: Pos1, S. pombe; source: Rosetta2(DE3)pLysS bacteria, purified on amylose beads, eluted with 10 mM maltose; not shown: MBP, N-terminal, kept
T1 sequence (looked up): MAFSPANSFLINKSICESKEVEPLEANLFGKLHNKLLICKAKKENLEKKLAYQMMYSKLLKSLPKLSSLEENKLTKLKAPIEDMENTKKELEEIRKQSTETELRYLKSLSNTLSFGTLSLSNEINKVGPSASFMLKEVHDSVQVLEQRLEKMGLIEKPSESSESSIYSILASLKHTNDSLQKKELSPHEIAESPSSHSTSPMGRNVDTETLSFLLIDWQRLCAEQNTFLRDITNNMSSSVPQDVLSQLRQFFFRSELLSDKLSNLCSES
The experiment in a line: pull-down; GST proteins left on beads, incubated with eluted MBP proteins in GST buffer for 40 min at 4°C; washed three times; SDS-PAGE, Coomassie Blue. As to conditions: both partners purified.

For the molecule B1, the “stoichiometry N” value in assay [1] is ~1.

For B2, the binding result in assay [2] was “binds”.

B3: GST–Spa2(305–360) (domain or fragment, S. pombe, UniProt O42869 305-360, looked up)
chain: TLSFNPELEKNLKLMQELIVAESSKTQHIVELESCIDSLKAETERWKKVAINAKSA
notes: not shown: GST, N-terminal, kept
Turning to B3, the binding result in assay [3] is reported as “binds”.

(Values after PMC12450465, “Oligomerization and exocyst coupling underlie Spa2-mediated focusing of polarized growth in fission yeast” (Journal of Cell Science, 2025).)
